The values that follow come from article doi:10.1101/2021.10.29.464531.

The target in the assay is tick-borne encephalitis virus capsid protein (tick-borne encephalitis virus, strain Kuutsalo-14). In words: cross-linking.

For “tick-borne encephalitis virus capsid protein (natural protein)”, the stoichiometry N (in general, a count of units in the complex or per binding partner) was determined as 2.
